# B1: Catenin beta-1 (Homo sapiens), P35222 (parent)
# chain: MATQADLMELDMAMEPDRKAAVSHWQQQSYLDSGIHSGATTTAPSLSGKGNPEEEDVDTSQVLYEWEQGFSQSFTQEQVADIDGQYAMTRAQRVRAAMFPETLDEGMQIPSTQFDAAHPTNVQRLAEPSQMLKHAVVNLINYQDDAELATRAIPELTKLLNDEDQVVVNKAAVMVHQLSKKEASRHAIMRSPQMVSAIVRTMQNTNDVETARCTAGTLHNLSHHREGLLAIFKSGGIPALVKMLGSPVDSVLFYAITTLHNLLLHQEGAKMAVRLAGGLQKMVALLNKTNVKFLAITTDCLQILAYGNQESKLIILASGGPQALVNIMRTYTYEKLLWTTSRVLKVLSVCSSNKPAIVEAGGMQALGLHLTDPSQRLVQNCLWTLRNLSDAATKQEGMEGLLGTLVQLLGSDDINVVTCAAGILSNLTCNNYKNKMMVCQVGGIEALVRTVLRAGDREDITEPAICALRHLTSRHQEAEMAQNAVRLHYGLPVVVKLLHPPSHWPLIKATVGLIRNLALCPANHAPLREQGAIPRLVQLLVRAHQDTQRRTSMGGTQQQFVEGVRMEEIVEGCTGALHILARDVHNRIVIRGLNTIPLFVQLLYSPIENIQRVAAGVLCELAQDKEAAEAIEAEGATAPLTELLHSRNEGVATYAAAVLFRMSEDKPQDYKKRLSVELTSSLFRTEPMAWNETADLGLDIGAQGEPLGYRQDDPSYRSFHSGGYGQDALGMDPMMEHEMGGHHPGADYPVDGLPDLGHAQDLMDGLPPGDSNQLAWFDTDL
# Variants of: B1
# Settings: with mlp3b_human MAP1LC3B
row,effect of a mutation on the interaction,Variant
1,disrupting interaction,W504A;I507A

# Variants of: B1
# Settings: with mlp3b_human MAP1LC3B
# Remark: another data set of the same source
row,effect of a mutation on the interaction,Variant
1,decreasing interaction,W504A;I507A
